Source: PMC12520690 (2025)

Target: NaV1.5 CTD (Homo sapiens, UniProt Q14524)
Test: ITC

NaV1.5 CTD, sequence (Q14524 1773-1940): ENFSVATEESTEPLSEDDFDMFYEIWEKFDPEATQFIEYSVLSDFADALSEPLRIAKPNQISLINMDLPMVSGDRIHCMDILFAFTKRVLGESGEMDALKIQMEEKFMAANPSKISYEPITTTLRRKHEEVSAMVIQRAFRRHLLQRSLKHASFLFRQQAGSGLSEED

B1: FGF13 (protein)
chain: MAAAIASSLIRQKRQAREREKSNACKCVSSPSKGKTSCDKNKLNVFSRVKLFGSKKRRRRRPEPQLKGIVTKLYSRQGYHLQLQADGTIDGTKDEDSTYTLFNLIPVGLRVVAIQGVQTKLYLAMNSEGYLYTSELFTPECKFKESVFENYYVTYSSMIYRQQQSGRGWYLGLNKEGEIMKGNHVKKNKPAAHFLPKPLKVAMYKEPSLHDLTEFSRSGSGTPTKSRSVSGVLNGGKSMSHNEST
  Kd: 123 nM
